Data published in publication PMC2686732, “Both Ca^2+ and Zn^2+ are essential for S100A12 protein oligomerization and function” (BMC Biochemistry, 2009).

Tests used:
[1] = target: the molecule itself; assay: native gel or EMSA; native PAGE, S100A12 in the presence of both Ca and Zn (also with the copper I chelator BCS)
[2] = target: the molecule itself; assay: native gel or EMSA; native PAGE, 7.5% gel, Tris-glycine pH 8.8, 14 ug S100A12 in 2 mM Ca
[3] = target: the molecule itself; assay: native gel or EMSA; native PAGE, S100A12 with zinc and calcium plus TPEN (zinc chelator) or EDTA (divalent ion chelator)
[4] = target: the molecule itself; assay: native gel or EMSA; native PAGE, 7.5% gel, Tris-glycine pH 8.8, 14 ug S100A12 with 5 uM Zn
[5] = target: T1, Human RAGE-Fc fusion protein (human, UniProt Q15109 23-342); assay: SPR; S100A12 immobilised (2,933 RU) by amine coupling on CM5; RAGE/Fc (125 nM) injected 3 min at 30 ul/min; HBS-P buffer with 1 mM Ca2+ and 20 uM Zn2+; 1:1 Langmuir model; settings: both partners purified
T1 construct: RAGE (Receptor for Advanced Glycation End products), human; also called recombinant human RAGE/Fc; source: bought: R&D Systems

[6] = target: the molecule itself; assay: SEC; Superdex 200, 50 mM Tris-HCl pH 7.5, 200 mM NaCl, 20 C, 1 mg/ml injected; no ions added

T1 sequence (Q15109 23-342): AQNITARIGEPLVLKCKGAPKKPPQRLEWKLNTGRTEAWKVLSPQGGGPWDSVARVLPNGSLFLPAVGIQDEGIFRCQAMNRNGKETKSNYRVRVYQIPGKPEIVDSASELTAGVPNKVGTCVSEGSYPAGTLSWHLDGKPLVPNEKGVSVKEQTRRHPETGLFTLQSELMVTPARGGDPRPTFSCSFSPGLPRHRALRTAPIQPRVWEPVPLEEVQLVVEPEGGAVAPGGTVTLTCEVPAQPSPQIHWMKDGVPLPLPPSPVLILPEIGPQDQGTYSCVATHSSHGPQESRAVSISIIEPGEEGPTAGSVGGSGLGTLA

Kd [5]: 4.6 nM
koff [5]: 0.00032 s⁻¹
kon [5]: 68000 M⁻¹ s⁻¹
B1: Recombinant full-length human S100A12 (natural protein, UniProt P80511 1-92, looked up)
chain: MTKLEEHLEGIVNIFHQYSVRKGHFDTLSKGELKQLLTKELANTIKNIKDKAVIDEIFQGLDANQDEQVDFQEFISLVAIALKAAHYHTHKE
notes: S100A12, human, full length; expressed from a modified pQE60 vector with a stop codon inserted so that the protein has no histidine tag; Oligomeric state (dimer, tetramer, hexamer) depends on Ca2+ and Zn2+ in the sample; [U-15N] labelled for the NMR experiments; also called apo-S100A12; Ca2+-S100A12; source: E. coli, purified (Phenyl-Sepharose, ResQ ion exchange)
stoichiometry N [1]: 6
stoichiometry N [2]: ~6
stoichiometry N [3]: 2
stoichiometry N [4]: ~4
stoichiometry N [6]: 4
